± gives the uncertainty stated by the source.
B1: Homeobox protein cut-like 2, residues 895 to 963; numbered along this chain, O14529 (parent)
chain: EVDTLELTRQVKEKLAKNGICQRIFGEKVLGLSQGSVSDMLSRPKPWSKLTQKGREPFIRMQLWLSDQL

Variants of: B1
Assay: abundance fitness (aPCA) (normalised: wild type 0, dead -1); higher = more abundant; growth selection in yeast, the domain comes from the species named
Settings: Homo sapiens

Variant	abundance fitness
EVDTLELTRQVKEKLAKNGICQRIFGEKVLGLSQGSVSDMLSRPAPWSKLTQKGREPFIRMQLWLSDQL [K45A]	-0.129 ± 0.11
EVDTLELTRQVKEKLAKNGICQRIFGEKVLGLSQGSVSDMLSRPKPWSKKTQKGREPFIRMQLWLSDQL [L50K]	-1.3 ± 0.17
EVDTLELTRQVKEKLAKNGICQRIFGEKVLGLSQRSVSDMLSRPKPWSKLTQKGREPFIRMQLWLSDQL [G35R]	0.037 ± 0.027
EVDTLELTRQVKEKLAKNGICQRIFGEKVLGLSQVSVSDMLSRPKPWSKLTQKGREPFIRMQLWLSDQL [G35V]	-0.058 ± 0.033
EVDTLELTRQVKEKLAKNGICQRIFGEKVLGLSQGSVSDYLSRPKPWSKLTQKGREPFIRMQLWLSDQL [M40Y]	-0.236 ± 0.11
EVGTLELTRQVKEKLAKNGICQRIFGEKVLGLSQGSVSDMLSRPKPWSKLTQKGREPFIRMQLWLSDQL [D3G]	-0.253 ± 0.033
EVDTLELTRQVKEKLAKNGICQRIFGEKVLGLSQGSVSDMQSRPKPWSKLTQKGREPFIRMQLWLSDQL [L41Q]	-0.303 ± 0.037
EFDTLELTRQVKEKLAKNGICQRIFGEKVLGLSQGSVSDMLSRPKPWSKLTQKGREPFIRMQLWLSDQL [V2F]	-0.024 ± 0.048
EVDTLELTRQVKEKLAKNGICQIIFGEKVLGLSQGSVSDMLSRPKPWSKLTQKGREPFIRMQLWLSDQL [R23I]	-0.192 ± 0.094
EVDTYELTRQVKEKLAKNGICQRIFGEKVLGLSQGSVSDMLSRPKPWSKLTQKGREPFIRMQLWLSDQL [L5Y]	-0.033 ± 0.051
EVDTLELTRQVKEKLAKNGICQRIFGEKVLGLSQCSVSDMLSRPKPWSKLTQKGREPFIRMQLWLSDQL [G35C]	-0.211 ± 0.043
EVDTLELTRQVKEKLAKNGICQRIFGEKVLGCSQGSVSDMLSRPKPWSKLTQKGREPFIRMQLWLSDQL [L32C]	-0.136 ± 0.052
EVDTLELTRQVKEKLAKNGICQRIFGEKVLGLSQGSVSDALSRPKPWSKLTQKGREPFIRMQLWLSDQL [M40A]	-0.169 ± 0.046
EVDTLELTRQVKEKLAKNGICQRIFGEKVLGLSQGSVSDMLSRPLPWSKLTQKGREPFIRMQLWLSDQL [K45L]	-0.009 ± 0.025
EVDTLELTRQVKEKLAKNGICQRIFGEKVLGLSQGSVSDMLSRPKPWSKLTQKGREPFRRMQLWLSDQL [I59R]	0.113 ± 0.04
EVDTLYLTRQVKEKLAKNGICQRIFGEKVLGLSQGSVSDMLSRPKPWSKLTQKGREPFIRMQLWLSDQL [E6Y]	-0.158 ± 0.059
EVDTLELTRQVKEKLAKNGICQRIFGEKVLGLSQGSVSDMLARPKPWSKLTQKGREPFIRMQLWLSDQL [S42A]	-0.014 ± 0.11
EVDTLELTRQVKEKLAKNGICQRIFGEKVLGLSQGTVSDMLSRPKPWSKLTQKGREPFIRMQLWLSDQL [S36T]	0.002 ± 0.028
EVDTLELTRQVREKLAKNGICQRIFGEKVLGLSQGSVSDMLSRPKPWSKLTQKGREPFIRMQLWLSDQL [K12R]	-0.187 ± 0.031
EVDTLELTRQVKEKFAKNGICQRIFGEKVLGLSQGSVSDMLSRPKPWSKLTQKGREPFIRMQLWLSDQL [L15F]	-0.157 ± 0.043
EVDTLELTRQVKEWLAKNGICQRIFGEKVLGLSQGSVSDMLSRPKPWSKLTQKGREPFIRMQLWLSDQL [K14W]	-0.094 ± 0.091
EVDTLELTRQVKEKLAKNGICQRIFGEKVLGLSQGSVSDMLSRPKPWSKLTQKGREPFICMQLWLSDQL [R60C]	-0.681 ± 0.27
EVDTLELTRQVKEKLAKNGICQRIFGEKVLGLSQGSVSDMLSRPKPTSKLTQKGREPFIRMQLWLSDQL [W47T]	-0.654 ± 0.062
EVDTLELTRQVKEKLAKNGICQRIFGEKVLGLSQGSVSDMISRPKPWSKLTQKGREPFIRMQLWLSDQL [L41I]	-0.315 ± 0.056
EVDTLELTRQVKEKLAKNGICQRIFGEKVLGLSQGSVSDMLSRPKPWSKLTQKGREVFIRMQLWLSDQL [P57V]	-0.117 ± 0.074
EVDTLELTRQVKEKLAKNGITQRIFGEKVLGLSQGSVSDMLSRPKPWSKLTQKGREPFIRMQLWLSDQL [C21T]	0.093 ± 0.04

Variant	abundance fitness
EVDTLELTRQVKEKLAKQGICQRIFGEKVLGLSQGSVSDMLSRPKPWSKLTQKGREPFIRMQLWLSDQL [N18Q]	-0.016 ± 0.034
EVDTLELTRQVKEKLAKNGVCQRIFGEKVLGLSQGSVSDMLSRPKPWSKLTQKGREPFIRMQLWLSDQL [I20V]	-0.201 ± 0.036
EVDTLELTRQVKEKLAKNGICQRIFGEKVLGLSQGSVSIMLSRPKPWSKLTQKGREPFIRMQLWLSDQL [D39I]	-0.26 ± 0.13
EVDTLELTRQVKEKLAKNGICQRIFGEKVLGLSQGSSSDMLSRPKPWSKLTQKGREPFIRMQLWLSDQL [V37S]	-0.232 ± 0.032
EVDTLELTRQVKEKLAKNGICQRIFGEKVLGLSQGSVSDMLSRPKPWSKLKQKGREPFIRMQLWLSDQL [T51K]	-0.115 ± 0.037
EVDTLELTRQVKEKLAKNGICQRIFGEKVLGLSQGSVSDMLSRPKPWAKLTQKGREPFIRMQLWLSDQL [S48A]	-0.064 ± 0.045
EVDTLELTYQVKEKLAKNGICQRIFGEKVLGLSQGSVSDMLSRPKPWSKLTQKGREPFIRMQLWLSDQL [R9Y]	-0.261 ± 0.059
EVDTLELTRQVKEKLAKNGICQRIFGEKVLGLSQGSVSDMLSRPKPWSKLTQKGREPFIRMQLWLSDQF [L69F]	-0.083 ± 0.054
EVDTLELTRQVKEKLAKNGICQRIFGEKVLGLSQGSVSDMLSRPKPWSKLTQKGTEPFIRMQLWLSDQL [R55T]	-0.359 ± 0.058
EVDTLELTRQVKEKLAKNGICQRIFGEKVLGLSQGSVSDMLSRPKPWSKLTQKGREPFIRMDLWLSDQL [Q62D]	-0.654 ± 0.16
EVDTLELTRQVKEKLNKNGICQRIFGEKVLGLSQGSVSDMLSRPKPWSKLTQKGREPFIRMQLWLSDQL [A16N]	-0.189 ± 0.15
EVDTLELTRQVKEKLAKNGICQRIFGEKVLGLSQGSVSKMLSRPKPWSKLTQKGREPFIRMQLWLSDQL [D39K]	-0.441 ± 0.17
EVDTLELTRQVKEKLAKNGICQRIFGEKVLGLSQGSVSDTLSRPKPWSKLTQKGREPFIRMQLWLSDQL [M40T]	-0.224 ± 0.049
EVDTLELTRQVKEKLAKNGICQRIFGEKVLGLSQGSVSDMLSRPKPWSKLTQKGREPNIRMQLWLSDQL [F58N]	-1.1 ± 0.3
EVDTLELTRQVKEQLAKNGICQRIFGEKVLGLSQGSVSDMLSRPKPWSKLTQKGREPFIRMQLWLSDQL [K14Q]	-0.012 ± 0.036
EVDTLELTRQVKEKLAKNGICQRIFGEKVLGLSQGSVSDMLSRPKPWSKLTQKGREPFIRMQLTLSDQL [W64T]	-1.31 ± 0.12
EVDTLELTRQVKEKLAKNGICQRIFGEKVLGLSQGSVSDMLSRPKPWSKLTQKGREPFIRVQLWLSDQL [M61V]	-0.418 ± 0.048
EVDTLELTRQVKEKLAKNGICQRIFGEKVLGLSQGSRSDMLSRPKPWSKLTQKGREPFIRMQLWLSDQL [V37R]	-0.223 ± 0.032
EVDTKELTRQVKEKLAKNGICQRIFGEKVLGLSQGSVSDMLSRPKPWSKLTQKGREPFIRMQLWLSDQL [L5K]	0.102 ± 0.031
EVDTLELTRQVKEKLAKNGICQRIFGEKVLGLSQGSVSDWLSRPKPWSKLTQKGREPFIRMQLWLSDQL [M40W]	0.048 ± 0.046
EVDTLELTRQVKEKLAKNGICQRIFGEKDLGLSQGSVSDMLSRPKPWSKLTQKGREPFIRMQLWLSDQL [V29D]	-0.476 ± 0.07
EVDTLELTRQVKEKLAKNGICQRIFGEKVLGLSQGSVSDMLSRPKPWSKLTQKGREPFIWMQLWLSDQL [R60W]	-0.553 ± 0.095
EVDTLELTRQVKEKLAKNGICQRIFGEKVLGLSRGSVSDMLSRPKPWSKLTQKGREPFIRMQLWLSDQL [Q34R]	0.282 ± 0.13
EVDTLELTKQVKEKLAKNGICQRIFGEKVLGLSQGSVSDMLSRPKPWSKLTQKGREPFIRMQLWLSDQL [R9K]	-0.086 ± 0.044
EVDTLELTRQVKEKLAKNGICQRIFGEKVLGLSQGSVSDMLSRPKPWSKLTQKGREPFIREQLWLSDQL [M61E]	-1.02 ± 0.17
EVDTLELTRQVKEKLAKNGICQRIFGEKVLGLSQGSVSDMLSRPKPWSKYTQKGREPFIRMQLWLSDQL [L50Y]	-0.191 ± 0.066

Variant	abundance fitness
EVDTLELGRQVKEKLAKNGICQRIFGEKVLGLSQGSVSDMLSRPKPWSKLTQKGREPFIRMQLWLSDQL [T8G]	-0.204 ± 0.04
EVDTLELTRQVKEKLAKNGICQRIFGEKVLGLSQGSVSDMLSRPKPWYKLTQKGREPFIRMQLWLSDQL [S48Y]	-0.084 ± 0.062
EVDTLELDRQVKEKLAKNGICQRIFGEKVLGLSQGSVSDMLSRPKPWSKLTQKGREPFIRMQLWLSDQL [T8D]	-0.214 ± 0.073
EVDTLELTRQVKEKLAKNGICQRIFGEKVLGLSQGSVSDMLSRPKPWSKLTQKGRPPFIRMQLWLSDQL [E56P]	-0.605 ± 0.047
EVDTLELTRQVKEKLAKNGICQRIFGEKVLGLSQGSVSDMLNRPKPWSKLTQKGREPFIRMQLWLSDQL [S42N]	-0.095 ± 0.057
EVDTLELTRQVKEKLAKNGICQRIFSEKVLGLSQGSVSDMLSRPKPWSKLTQKGREPFIRMQLWLSDQL [G26S]	-0.035 ± 0.033
EVDTLELTRQVKEKLAKNGICQRIFGEKVLGLSQGSVSDMLSRPKPWSLLTQKGREPFIRMQLWLSDQL [K49L]	0.002 ± 0.028
EVDTLELTRQVKEKLAKNGICQRIFGEKVLGLSQGSVSDMLSRPKPWSKLTQKFREPFIRMQLWLSDQL [G54F]	-0.048 ± 0.045
EVDTLELTRQVKEKLKKNGICQRIFGEKVLGLSQGSVSDMLSRPKPWSKLTQKGREPFIRMQLWLSDQL [A16K]	0.001 ± 0.051
EVDTLELTRQVKEKLAKNVICQRIFGEKVLGLSQGSVSDMLSRPKPWSKLTQKGREPFIRMQLWLSDQL [G19V]	-0.417 ± 0.057
EVDTLELTRQVKEKLAKNGICQRIFGEKVLHLSQGSVSDMLSRPKPWSKLTQKGREPFIRMQLWLSDQL [G31H]	-0.059 ± 0.054
EVDTLELTRQVKEKLAKNGICQRIFGEKVLGLSQNSVSDMLSRPKPWSKLTQKGREPFIRMQLWLSDQL [G35N]	0.044 ± 0.088
EVDTLELTRQVKEKLAKNGICQRIFGEKVLGLSQGSVSDMLSRPKPWSKLTQKGREPFIRMQLWLSCQL [D67C]	-0.576 ± 0.11
EVDTLELTRQVKEKLAKNGICQRIFGEKVLGLSQGSVSDMLSRPKPWSKLTQKGREPFIRMQLWLSDIL [Q68I]	-0.142 ± 0.047
EVDTLELTRQVKEKLAKNGICQRIFGEKVLGLSQGSVSDMLSRPKPWSKLNQKGREPFIRMQLWLSDQL [T51N]	-0.082 ± 0.048
EVDTLELTRQVKEKLAKNGICQRIFGEKFLGLSQGSVSDMLSRPKPWSKLTQKGREPFIRMQLWLSDQL [V29F]	-0.174 ± 0.048
EVDTLELTRQVKEKLAKNGICQRIFGEKVLGLSQGSISDMLSRPKPWSKLTQKGREPFIRMQLWLSDQL [V37I]	-0.156 ± 0.046
EVDTLELTRQVKEKLAKNGICQRIFGEKVLGLSQGSVSDMFSRPKPWSKLTQKGREPFIRMQLWLSDQL [L41F]	-0.088 ± 0.046
EVDTLWLTRQVKEKLAKNGICQRIFGEKVLGLSQGSVSDMLSRPKPWSKLTQKGREPFIRMQLWLSDQL [E6W]	-0.173 ± 0.029
EVDTLELTRQVKEKLAKNGICQRFFGEKVLGLSQGSVSDMLSRPKPWSKLTQKGREPFIRMQLWLSDQL [I24F]	0.143 ± 0.056
EVDDLELTRQVKEKLAKNGICQRIFGEKVLGLSQGSVSDMLSRPKPWSKLTQKGREPFIRMQLWLSDQL [T4D]	-0.092 ± 0.066
EVDTLELTRQVKEKLAKNGICQRIFGEKVLGLSQGSVSDMLSRPKPWTKLTQKGREPFIRMQLWLSDQL [S48T]	-0.085 ± 0.042
EYDTLELTRQVKEKLAKNGICQRIFGEKVLGLSQGSVSDMLSRPKPWSKLTQKGREPFIRMQLWLSDQL [V2Y]	-0.152 ± 0.069
EVDTLELTRQVKEKLAKNGICQRIFGEKVLGLSQGSVSDMLSRFKPWSKLTQKGREPFIRMQLWLSDQL [P44F]	-0.105 ± 0.045
EVDTLELTRQVKEKLAKNGICQRIFGEKVLGLSQGSVSDMLSRPKPHSKLTQKGREPFIRMQLWLSDQL [W47H]	-0.894 ± 0.063
EVDTLELTRQVKEKLAKNGICQRIFGEKVLGLSQGSVSDMLSRPKRWSKLTQKGREPFIRMQLWLSDQL [P46R]	-0.057 ± 0.08

Reference: the Human Domainome abundance scans (Beltran et al. 2025)
